Results as given in patent publication US6566489 (GENERAL HOSPITAL, dated 2003).

Target: T1, GST alone (UniProt P08515 1-218 = GST)
T1 construct: Negative control
Assay: pull-down on GST beads, western blot with CS4E
Experimental: Fifteen µl of a 50% slurry of GST-S4BP bound to GST beads were incubated with 10 µg of soluble pMal-syndecan in 0.5 ml of lysis buffer that contained 1% BSA. After incubation for 30 minutes at room temperature with constant mixing, the reaction mixtures were placed on ice and washed 3× with lysis buffer followed by, 3 washes with lysis buffer containing 1 M NaCl. Protein bound to GST-S4BP beads was solubilized in SDS-PAGE buffer, electrophoresed, transferred to an Immobilon-P membrane and analyzed for bound syndecan-4 core protein using the avian specific syndecan-4 polyclonal antibody CS4E (Baciu et al. (1994) *J. Biol. Chem.* 269:696–703).

T1 sequence (P08515 whole entry): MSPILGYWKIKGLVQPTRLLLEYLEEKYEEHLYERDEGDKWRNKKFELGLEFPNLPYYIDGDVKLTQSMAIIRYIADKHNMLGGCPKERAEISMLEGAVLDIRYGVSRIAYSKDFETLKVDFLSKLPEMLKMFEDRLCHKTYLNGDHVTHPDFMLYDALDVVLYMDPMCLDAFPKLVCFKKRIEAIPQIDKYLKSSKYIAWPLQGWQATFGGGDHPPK

B1: pMal/syndecan-4 fusion protein, full length syndecan-4 core protein (S-4) (other, avian, UniProt P49416 20-197, looked up, not shown: large carriers)
chain: ESVRETETMDARWLDNVGSGDLPDDEDIGEFTPHLTSDEFDIDDTSGSGDYSDYDDAIYLTTVDTPAISDNYIPGDTERKMEGEKKNTMLDNEIIPDKASPVEANLSNKISMASTANSSIFERTEVLTALIAGGAVGLLFAVFLILLLVYRMKKKDEGSYDLGKKPIYKKAPTNEFYA
notes: Bacterially expressed, soluble, purified on a maltose column
B1: no binding (tested: 10 µg of soluble pMal-syndecan in 0.5 ml).
